Reference: patent publication US20260217843A1 (APOGEE THERAPEUTICS, published 2026)
Residue numbers refer to the chain shown, from its start.

T1: Recombinant Human OX40L Protein, His Tag (Acro Cat. IL3-H52H4) (human, UniProt P23510 51-183)
T1 construct: Bought His-tagged protein; also called hOX40L
T1 sequence: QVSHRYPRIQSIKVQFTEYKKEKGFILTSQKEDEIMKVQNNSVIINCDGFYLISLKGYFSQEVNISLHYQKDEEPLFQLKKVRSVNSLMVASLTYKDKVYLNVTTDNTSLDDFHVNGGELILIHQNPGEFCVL

T2: biotinylated hOX40L (human, UniProt P23510 51-183, limits assumed, biotinylated (sites not given))
T2 construct: construct not described
T2 sequence: T1 sequence

T3: hOX40L added as soluble protein in cell assays (human, UniProt P23510 51-183, limits assumed)
T3 sequence: T1 sequence

T4: Recombinant Cynomolgus OX40L Protein, His Tag (SINO BIOLOGICAL, Cat. 11057-C07H) (cynomolgus, UniProt G7NVH7 51-183)
T4 construct: Bought protein
T4 sequence: T1 sequence with R5Q, K23E

T5: hOX40L on hOX40L-expressing CHO cells (human, UniProt P23510 1-183)
T5 construct: also called cell surface OX40L
T5 sequence: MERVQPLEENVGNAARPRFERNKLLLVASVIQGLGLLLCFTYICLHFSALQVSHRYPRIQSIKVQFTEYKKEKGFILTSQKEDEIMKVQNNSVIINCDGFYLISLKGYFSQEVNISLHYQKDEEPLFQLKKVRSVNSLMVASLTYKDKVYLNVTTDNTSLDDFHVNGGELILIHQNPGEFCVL

B1: anti-hOX40L antibody clone 130 (antibody, human IgG1, kappa, L234A L235A, V domains shown)
VH: EVQLVESGGGLVKPGGSLRLSCAASGFTFSYAWMSWVRQAPGRGLEWVGRIKSETDGGTTDYAAPVKGRFTISRDHSENTLFLQMNSLKTEDTAVYYCTTGSSWNVYFFDFWGQGTLVTVSS
VL: DIQMTQSPSSLSASVGDSVTITCRASQSISNYLNWYHQKPGKAPKLLIYAAYRLQTGVPSRFSGSGSGTDFTLTISSLQPEDFATYYCQQSYSSPLTFGGGTKVEIKR
B2: anti-hOX40L antibody clone 118 (antibody, human IgG1, kappa, L234A L235A, V domains shown)
VH: EVQVVESGGGLIQPGGSLRISCAASGFPVSSNYMSWVRQAPGKGLDWVSIIYSRDSTHYADSVKGRFTMSRDNSKNTVYLQMNSLRAEDTAVYYCAGTLTYYYGAGSDYWGQGTLVTVSS
VL: DIQMTQSPSSLSASVGDRVTITCRASQGIRNDLGWYQQKPGKAPKRLIYAASSLQSGVPSRFSGSGSGTEFTLTISSLQPEDFATYYCLQHNSYPWSFGQGTKVEIKR
B3: positive control based on the sequences of the anti-hOX40L antibody amlitelimab (antibody, IgG4, V domains shown)
VH: EVQLVESGGGLVQPGGSLRLSCAASGFTFSNYAMNWVRQAPGKGLEWVSTISGSGGATRYADSVKGRFTISRDNSRNTVYLQMNSLRVEDTAVFYCTKDRLIMATVRGPYYYGMDVWGQGTTVTVSS
VL: DIQMTQSPSSLSASVGDRVTITCRASQSISSYLNWYQQKPGKAPNLLIYAASSLQSGVPSRFSGSGSETDFTLTISSLQPEDFATYYCQQSHSVSFTFGPGTKVDIK
notes: also called Pos; Ctrl
B4: anti-hOX40L antibody clone 127 (antibody, human IgG1, kappa, L234A L235A, V domains shown)
VH: EVQLVESGGGFVKPGGSLRLSCAASGFTFSNAWMSWVRQAPGKGLEWVGRIKSNSYGGTTDYAAPAIGRFTISRDGSKSTLYLQMNSLKTEDTAVYYCTTDHPKFGFDFWGQGTLVTVSS
VL: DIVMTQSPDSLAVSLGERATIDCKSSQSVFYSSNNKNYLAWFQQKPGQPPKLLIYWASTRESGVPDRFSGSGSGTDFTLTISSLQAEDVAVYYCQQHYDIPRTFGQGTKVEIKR
B5: anti-hOX40L antibody clone 122 (antibody, human IgG1, kappa, L234A L235A, V domains shown)
VH: EVQLVESGGGLVQPGGSLRLSCAASGFTFSNYWMHWVRQAPGKGLVWVSRINSDGISTRYADSVKGRFTISRDNAKNTLYLQMKSLRAEDTAVYYCVRDFQLELPDYWGQGTLVTVSS
VL: DIQMTQSPSSLSASVGDRVTITCRASQGIRDDLAWYQQKAGKAPKRLIFAASSLQSGVPSRFSGSGSGTEFTLTISGLQPEDFANYYCLQHKSNPFTFGQGTKLEIKR
B6: anti-hOX40L antibody clone 328 (antibody, human IgG1, kappa, L234A L235A)
heavy: QVQLQESGPGLVKPSQTLSLTCTVSGGSISSGGYYWSWIRQYPGKGLEWIGHIYYSGSTKYNPSLKSRLTISVDTSKNQFSLKLSSVTAADTAVYYCARDNWGSGWYYMDVWGKGTTVTVSSASTKGPSVFPLAPSSKSTSGGTAALGCLVKDYFPEPVTVSWNSGALTSGVHTFPAVLQSSGLYSLSSVVTVPSSSLGTQTYICNVNHKPSNTKVDKKVEPKSCDKTHTCPPCPAPEAAGGPSVFLFPPKPKDTLYITREPEVTCVVVDVSHEDPEVKFNWYVDGVEVHNAKTKPREEQYNSTYRVVSVLTVLHQDWLNGKEYKCKVSNKALPAPIEKTISKAKGQPREPQVYTLPPSRDELTKNQVSLTCLVKGFYPSDIAVEWESNGQPENNYKTTPPVLDSDGSFFLYSKLTVDKSRWQQGNVFSCSVMHEALHNHYTQKSLSLSPG
light: EIVLTQSPATLSLSPGERATLSCRASQSVSNYFAWYRQKPGQAPRLLIYDASNRATGIPARFSGSGSGTDFTLTISSLEPEDFAVYYCQHRSNWPLTFGGGTKVEIKRTVAAPSVFIFPPSDEQLKSGTASVVCLLNNFYPREAKVQWKVDNALQSGNSQESVTEQDSKDSTYSLSSTLTLSKADYEKHKVYACEVTHQGLSSPVTKSFNRGEC
B7: anti-hOX40L antibody clone 128 (antibody, human IgG1, kappa, L234A L235A, V domains shown)
VH: EVQLVESGGGLVTPGGSLRISCAASGFTFNNAWMTWVRQAPGKGLEWVGRIKSISYGGTTDSAAPVKGRFTISRDDSENTLYLQMSSLKTEDTAVYYCSTGSVWKYGGSLDFWGQGTLVTVSS
VL: DIQMTQSPSSLSASVGDRVTFTCRASQGISRFLNWYQQKPGKAPKLLIYAASTLQNGVPSRFSGSGSGTDFTLTISSLQPEDFATYFCQQTYSTPLTFGGGTKVEIYR

Experiments:
[1] = molecular target: T1, Recombinant Human OX40L Protein, His …; assay: SPR (Biacore 8K), antibody captured, human OX40L injected, 1:1 fit
Method: (§1) Samples were injected in a multi-cycle manner over freshly captured mAb, by regenerating the capture surfaces with injection of glycine pH 1.5 for 30 sec at a flow rate of 30 μL/min. The data was processed and analyzed with Biacore Insight Evaluation Software Version 2.0.15.12933 (GE Healthcare) as follows. […] The responses from the two buffer blank injections were then subtracted from the reference subtracted data (2-1) to yield double-referenced data, which were fit to an 1:1 binding model to determine the apparent association (ka) and dissociation rate constants (kd). Their ratio provided the apparent equilibrium dissociation constant or affinity constant (KD=kd/ka).

biotinylated hOX40L = molecular target: T2, biotinylated hOX40L; assay: blocking ELISA: biotinylated hOX40L preincubated with titrated antibody, added to coated hOX40-Fc, Extravidin-HRP
[2] = molecular target: T3, hOX40L added as soluble protein in cell …; assay: cell-based or functional assay
[3] = molecular target: T4, Recombinant Cynomolgus OX40L Protein, …; assay: SPR (Biacore 8K), antibody captured, cynomolgus OX40L injected, 1:1 fit
Method: as §1

[4] = molecular target: T5, hOX40L on hOX40L-expressing CHO cells; assay: flow cytometry on hOX40L-expressing CHO cells, gMFI, nonlinear regression
Method: Nonlinear regression was performed on geometric mean fluorescence intensity (gMFI) values to determine EC50 values (FIG. 1, TABLE 8).

human FcRn = human FcRn (human, UniProt P55899 24-297; P61769 21-119); assay: SPR (Biacore 8K+), antibody captured by anti-human kappa, human FcRn injected, pH 5.8; pH 5.8
Method: (§2) Briefly, a CM5 Series S sensor chip functionalized with anti-human kappa antibody was used to capture antibodies at 5 μg/mL. […] The chip was regenerated with 10 mM glycine pH 1.5 and 10 mM NaOH between runs.

C1q = molecular target: T6, C1q; assay: SPR (Biacore 8K+), antibody captured by anti-human IgG Fc, C1q injected at 25 nM, mean response
T6 construct: also called Clq
Method: Briefly, a CM5 Series S sensor chip functionalized with anti-human IgG Fc antibody was used to capture antibodies at 5 μg/mL. […] The chip was regenerated with 10 mM glycine pH 1.5 and 10 mM NaOH between runs.

cynomolgus FcRn = cynomolgus FcRn (cynomolgus, UniProt Q8SPV9 24-297; Q8SPW0 21-119); assay: SPR (Biacore 8K+), antibody captured by anti-human kappa, cynomolgus FcRn injected, pH 5.8; pH 5.8
Method: as §2

Chain of human FcRn (P55899 24-297 limits assumed, form in doubt, chain 1 of 2): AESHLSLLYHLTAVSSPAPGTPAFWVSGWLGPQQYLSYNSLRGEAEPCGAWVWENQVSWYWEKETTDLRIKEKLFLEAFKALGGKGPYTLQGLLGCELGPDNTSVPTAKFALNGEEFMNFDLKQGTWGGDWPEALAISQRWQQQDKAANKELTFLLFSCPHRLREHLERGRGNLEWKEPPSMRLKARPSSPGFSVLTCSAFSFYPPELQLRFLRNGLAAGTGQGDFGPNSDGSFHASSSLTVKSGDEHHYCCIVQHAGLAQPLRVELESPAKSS
Chain of human FcRn (P61769 21-119 limits assumed, form in doubt, chain 2 of 2): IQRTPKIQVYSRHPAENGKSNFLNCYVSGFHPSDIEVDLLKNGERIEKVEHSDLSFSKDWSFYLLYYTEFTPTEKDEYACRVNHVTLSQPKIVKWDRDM
Chain of cynomolgus FcRn (Q8SPV9 24-297 limits assumed, chain 1 of 2): as the sequence (P55899 24-297 limits assumed, form in doubt, chain 1 of 2) above, with N39D, E44Q, G99S, S189G, S190N, L217M, S269T counted along it
Chain of cynomolgus FcRn (Q8SPW0 21-119 limits assumed, chain 2 of 2): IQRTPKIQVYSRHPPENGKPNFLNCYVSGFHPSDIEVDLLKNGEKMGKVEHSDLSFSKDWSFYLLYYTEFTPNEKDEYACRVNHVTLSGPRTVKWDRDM
T6 sequence (P02745 23-245, chain 1 of 3): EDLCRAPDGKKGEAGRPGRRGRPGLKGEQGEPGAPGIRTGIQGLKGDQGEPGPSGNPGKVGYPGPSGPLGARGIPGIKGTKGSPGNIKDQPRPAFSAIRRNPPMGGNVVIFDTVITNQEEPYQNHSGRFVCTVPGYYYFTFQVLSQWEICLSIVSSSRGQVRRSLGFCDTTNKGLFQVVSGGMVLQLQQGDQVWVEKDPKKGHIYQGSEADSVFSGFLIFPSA
T6 sequence (P02746 28-253, chain 2 of 3, further chain): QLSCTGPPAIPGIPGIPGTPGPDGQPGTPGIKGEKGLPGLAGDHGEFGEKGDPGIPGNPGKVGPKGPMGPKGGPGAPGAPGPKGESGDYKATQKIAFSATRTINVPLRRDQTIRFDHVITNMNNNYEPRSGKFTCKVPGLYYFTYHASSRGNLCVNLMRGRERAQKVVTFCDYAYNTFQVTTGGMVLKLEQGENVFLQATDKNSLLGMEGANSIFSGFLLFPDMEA
T6 sequence (P02747 29-245, chain 3 of 3, further chain): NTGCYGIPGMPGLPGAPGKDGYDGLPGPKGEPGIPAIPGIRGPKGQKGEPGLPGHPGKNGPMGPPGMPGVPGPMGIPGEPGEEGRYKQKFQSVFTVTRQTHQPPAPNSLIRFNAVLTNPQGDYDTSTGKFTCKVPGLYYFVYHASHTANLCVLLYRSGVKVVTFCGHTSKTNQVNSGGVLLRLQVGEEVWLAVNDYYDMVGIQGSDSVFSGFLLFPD

Row | Binder | Kd [1] [nM] | koff [1] [s⁻¹] | kon [1] [M⁻¹ s⁻¹] | IC50 (biotinylated hOX40L) [nM] | IC50, luminescence (RLU), hOX40 reporter cells with 50 ng/mL hOX40L [2] [nM] | Kd [3] [nM] | koff [3] [s⁻¹] | kon [3] [M⁻¹ s⁻¹] | EC50 [4] [nM] | Kd (human FcRn) [nM] | koff (human FcRn) [s⁻¹] | kon (human FcRn) [M⁻¹ s⁻¹] | RU at 25 nM C1q (C1q) [RU] | Kd (cynomolgus FcRn) [nM] | koff (cynomolgus FcRn) [s⁻¹] | kon (cynomolgus FcRn) [M⁻¹ s⁻¹]
1 | B1 | 0.0873 | 1.14e-05 | 131000 | 13 |  |  |  |  |  |  |  |  |  |  |  | 
2 | B2 | 0.182 | 2.82e-05 | 155000 |  | 0.912 |  |  |  |  |  |  |  |  |  |  | 
3 | B3 |  |  |  | 0.62 |  | 0.0455 | 0.000119 | 2.62e+06 | 3.49 |  |  |  |  |  |  | 
4 | B4 | 1.11 | 0.00021 | 189000 |  | 1.72 |  |  |  |  |  |  |  |  |  |  | 
5 | B5 | < 0.00662 | < 1e-06 | 151000 | 1.57 |  |  |  |  |  |  |  |  |  |  |  | 
6 | B6 | 0.136 | 0.000271 | 2e+06 | 5.99 | 1.9 | 0.0316 | 0.000152 | 4.8e+06 |  | 137 | 0.046 | 336000 | 0.2 | 116 | 0.0462 | 399000
7 | B7 | < 0.00893 | < 1e-06 | 112000 | 7.52 |  |  |  |  |  |  |  |  |  |  |  | 
